Substrate: COCCOCn1ccc(NC(=O)c2cc(Oc3ccc(S(C)(=O)=O)cc3)cc(-c3ncccc3C)c2)n1
Test: Activity of recombinant human pancreatic glucokinase assessed as glucose half-maximal activity

B1: Hexokinase-4 (Homo sapiens), P35557 (protein)
chain: MLDDRARMEAAKKEKVEQILAEFQLQEEDLKKVMRRMQKEMDRGLRLETHEEASVKMLPTYVRSTPEGSEVGDFLSLDLGGTNFRVMLVKVGEGEEGQWSVKTKHQMYSIPEDAMTGTAEMLFDYISECISDFLDKHQMKHKKLPLGFTFSFPVRHEDIDKGILLNWTKGFKASGAEGNNVVGLLRDAIKRRGDFEMDVVAMVNDTVATMISCYYEDHQCEVGMIVGTGCNACYMEEMQNVELVEGDEGRMCVNTEWGAFGDSGELDEFLLEYDRLVDESSANPGQQLYEKLIGGKYMGELVRLVLLRLVDENLLFHGEASEQLRTRGAFETRFVSQVESDTGDRKQIYNILSTLGLRPSTTDCDIVRRACESVSTRAAHMCSAGLAGVINRMRESRSEDVMRITVGVDGSVYKLHPSFKERFHASVRRLTPSCEITFIESEEGSGRGAALVSAVACKKACMLGQ
Vmax: 150%

— ChEMBL document CHEMBL3232870, “Discovery of 3-(4-methanesulfonylphenoxy)-N-[1-(2-methoxy-ethoxymethyl)-1H-pyrazol-3-yl]-5-(3-methylpyridin-2-yl)-benzamide as a novel glucokinase activator (GKA) for the treatment of type 2 diabetes mellitus” (Bioorg Med Chem, 2014)
